Test results: patent US20220380442A1 (published 2022)
Like-named read-outs stand apart in the source and are kept apart here.

B1: SNV-39 (antibody, V domains shown)
VH: QEQLEESGGGVVQPGRSLTLSCAASGFTFRSYDMHWVRQAPGKGLEWVALISYDGRNKHYGDSVKGRFTISRDNSKNTLYLHLSSLRAEDTSVYYCARGADNGLFTDSWGQGTLVIVSS
VL: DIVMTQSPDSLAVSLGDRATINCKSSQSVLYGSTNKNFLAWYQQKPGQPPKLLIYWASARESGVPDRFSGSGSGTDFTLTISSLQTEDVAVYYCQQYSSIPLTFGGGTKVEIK
B2: SNV-57 (antibody, V domains shown)
VH: QVQLVESGGGVVQPGRSLRLSCAASGFTFSSYAMHWVRQAPGKGLEWVALISLDGFNTYYPDSVKGRFTISRDSSKNTLFLQLNSLRIEDTAVYYCVKDRGPTGSGSYGMDVWGQGTTVTVSS
VL: SYELTQPPSVSVSPGQTASITCSGDKLGNKFACWYQQKPGQSPVLVIHQDKKRPSGIPERFSGSNSGNTATLTISGTQAVDEADYYCQAWDSSNVVFGGGTKLTVL
B3: SNV-50 (antibody, V domains shown)
VH: EMQLLESGGGLIQPGESLRLSCAGSGFTFRNYAMSWVRQAPGKGLQWVSAISASGGITHYADSVKGRFTISRDNSKNTLFLQMNSLRAEDTAVYYCAKGEIMRDTGYHDDAFDVWGQGKMVTVSS
VL: DIQLTQSPSFLSASVGDRVTITCRASQGISSYLVWYQQKPGEAPKLLIYTASTLQSGVPSRFSGSGSGTEFTLTISSLQPEDFATYHCQQVESYPYSFGQGTKLEIK
B4: SNV-24 (antibody, V domains shown)
VH: EVQLLESGGGLIQSGGSLRLSCVVSGIDFSNYAMTWVRHAPGKGLEWISTISGSGDTTNYADSAKGRFTISRDNSRNTLFVRINSLRAEDTAIYYCAKTMGPVSGQYAFDIWGQGTKVTVSS
VL: SYELTQPPSVSVSPGQTATITCSGDNLGNKFASWYQQKPGLSPVLVIYQDKKRPSGIPERFSGSNSGNTATLTISGTQAMDEADYFCQAWHSGSVFGGGTKLTVL
B5: SNV-56 (antibody, V domains shown)
VH: EVQLVESGGRLVRPGGSLRLSCAASGFTFSHYNMNWVRQAPGKGLEWVSSINSRNGYTYYADSVKGRFTISRDNAKNSLYLQMNSLRPEDTAVYYCARDPPLYSGYDLGYYYYGMDVWGQGTTVTVSS
VL: DIQMTQSPSTLSAFVGDRVTITCRANQNISKWLAWYQQKPGKAPNLLIHKASSLESGVPSRFSGSGSGTEFTLTISSLQPDDFATYSCQQYNSYPWAFGQGTRVEIK
B6: SNV-45 (antibody, V domains shown)
VH: ELQLVESGGGLIRPGGSLRLSCTAAGFTFSNYNMNWVRQAPGKGLDWVSYISSSGGTTIYADSVKGRFTISRDNAKDSLYLQMNSLRDDDTAIYYCVRGRGQLATHFDYWGQGTLVTVSS
VL: ESVLTQFPDFQSVTPKEKVTITCRASQSIHINLHWYQQKPHQSPKLLIKYASQSIAGVPSRFSGSGSGTEFTLTINGLEAEDAATYYCHQSNSLPWTFGQGTKVEIK
B7: SNV-68 (antibody, V domains shown)
VH: QVQLQESGPGLVKPSGTLSLTCLVSGGSIGSSHWWSWVRQSPGKGLEWFGEIHHTESTNYNPSLKSRVTITMDKSKNQFYLKLTSVTAADTAVYYCARAGATFAEPFSLWGQGTMVTVSP
VL: DIQMTQSPSTLSASVGDRVTITCRAGQSVTNWLAWYQQKPGKAPKLLIYKASILASGVPSRFSGSGSGTEFTLTISSVQPDDSAVYYCQQYKSHRTFGQGTKVEIK
B8: SNV-67 (antibody, V domains shown)
VH: QVQLVQSGAEVKKPGASVRVSCKASGYTFTAYFMNWVRQAPGQGLEWMGRINPISGDTNFAQNFQGRVTMTRDTSITTVYMELNRLTSDDTAVYYCARVRSGYSYIDFWGQGTLVTVAS
VL: SYDLTQPPSVSVSPGQTARITCSGDALSNQYAYWYQQRPGQAPVVVIYKYSERPSGIPERFSGSSSGTTVTLTISGVQAEDEADYYCQSADRLGTYWVFGGGTKLTVL
B9: SNV-42 (antibody, V domains shown)
VH: EVQLVESGGGLVQPGGSLRLSCAASGFTFSTYEMNWVRQAPGKGLEWISYIRSSGSTVYYADSVKGRFTISRDNAKNLLYLQMNSLRAGDTAVYYCARIPGGYTGYFDYWGQGALVTVSS
VL: QSVLTQPPSVSGAPGQRVTISCTGSSSNIGAGYYVHWYQQLPGTVPKLLIYGNNNRPSGVPDRFSGSKSGTSASLAITGLQTEDEADYYCQSYDSSLSGWVFGGGTKLTVL
B10: SNV-66 (antibody, V domains shown)
VH: QVRLVESGGGVVQPGRSLRLSCAASGFTFRSYGMHWVRQAPGKGLEWVALISLDGSEKHYADSVKGRLTISRDNSKNMLYLQMNNLRVEDTAVYYCAKDRPYSWRDVLDYWGQGTLVTVSS
VL: DIQMTQSPSSLSASVGDRVTITCRASRDIHTSLNWYQHTPGKAPELLIYAASTLEMGVPSRFSGSGSGTDFTFTISSLQPEDIATYYCQQYDELPLTFGGGTKVEMK
B11: SNV-65 (antibody, V domains shown)
VH: QVQLQESGPGLVKPSQTLSLTCTVSGGSISSGGYFWSWIRQHPGKGLEWIGYIYYSGSTYYNPSLKSRVTISIDTSKIQFSLKLTSVTAADTAVYYCARDVGGFDIWGQGTMVTVSS
VL: DIQMTQSPSSLSASIGDRVTITCQASQDINKYLNWYQQKPGKAPKVLIYDASNLETGVPSRFSGSGSGTDFTFTISSLQPEDVATYYCQQYENLPRTFGQGTKVEIK
B12: SNV-27 (antibody, V domains shown)
VH: QVQLVQSGAEVKKPGASVRVSCKAYGYSFNDYFMHWVRQAPGQGLEWMGRVKPSTGGTRYAQKFQGRVTMTLDTSTSTAYVELSSLSSDDTAVYFCARKLGPLGDCSSSSCYSALDVWGQGTMVTVSS
VL: DIQMTQSPSTLSASVGDRVTITCRASESISNWLAWYQQKPGKAPKLLISKASSLESGVPSRFSGSGSGTEFTLTIGSLQPDDFATYYCQQYNTYSWTFGQGTKVDIK
B13: SNV-36 (antibody, V domains shown)
VH: QVQLVESGGGVVQPGRSLRLSCAASGFRFSSYAMHWVRQAPGKGLEWVATIWFDGTNEYYGDSAKGRFTISRDNSMSTLYLQMNSLRVEDTAVYYCARPANGYSDYYYGMDVWGQGTTVTVSS
VL: QSALTQPASVSGSPGQSITISCTGTSSDVGTYNLVSWYQQHPGKAPKLMIFEVNKRPSGVSYRFSGSKSGNTASLTISGLQAEDEADYYCCSYADNRTPFLFGTGTKVTVLG
B14: ANDV-44 (antibody, V domains shown)
VH: QVQLVQSGAEVRKPGASVKVSCKASGYTFTSNGVSWVRQAPGQGLEWMGWIAGYDGYTNYTQKFQGRVTMTTDTSTTTVYMELRSLRFDDTAVYYCARDEGLHNWKFNAMDVWGQGTTVIVSS
VL: EIVLTQSPGTLSLSPGERATLSCRASQSVSSSYLAWYQQKPGQAPRLLMSETSRRATGIPDRFSGSVSGTDFILTINRVDPEDFAVYYCQQYSSPPWTFGQGTKVEIK
B15: SNV-25 (antibody, V domains shown)
VH: QVQLQESGPGLVKPSGTLSLTCAVSGGSISSSNWWSWVRQPPGKGLEWIGEIYHSGSTNYNPSLKSRATISVDKSKNQFSLKLSSVTAADTAFYYCARARGEWLAHFDYWGQGTLVTVSS
VL: DIQMTQSPSTLSASVGDRVTITCRASQSISRWLAWYQQKPGKAPKLLIYKASSLESGVPSRFSGSGSGTEFTLTISSLQPDDFAIYYCQQYNTDKTFGQGTKVEIK
B16: SNV-32 (antibody, V domains shown)
VH: QVQLVQSGAEVKKPGSSVKVSCRASGGTFRSYSISWVRQAPGQGLEWMGDIIPIFSTTNYAQKFQGRVTITADEATSTAYMELSSLRSDDTAVYYCARPSNLLNWFDPWGQGTLVTVSS
VL: EIVMTQSPATLSVSPGERATLSCRASQSVNSNLVWYQQKPGQAPRLLIYGASTRATGIPARISGSGSGTEFTLTISSLQSEDFAVYYCQQYDNRPQTFGQGTKVEIK
B17: ANDV-12 (antibody, V domains shown)
VH: EVQLVESGGGLVQPGGSLRLSCAASGFAFSSYWMTWVRQAPGKGLEFVANIKYDASEKYYVDSVKGRFTISRDNGRNSFYLQMNSLRAEDTAVYYCAVPGPGYSFAYDYWGQGTQVTVSS
VL: DIQMTQSPSSLSASVGDRITITCRASQSVGTYLNWYQQKPGKAPKLLIYEASSLQSGVPSRFSGSGSGTDFTLTISRLQPEDFATYSCQQSDIPPWTFGQGTKVEIK
B18: SNV-62 (antibody, V domains shown)
VH: QVLLVQSGAEVKKPGASVKVSCKASGYTFTSYFIHWVRQAPGQGLEWMGMINPISGNTNYAQKFQGRVTMTRDTSTRTVYMQLSSLTFEDTAVYSCVRWTTVPSSFDFWGQGTLVTVSS
VL: SYELTQPPSVSVSPGQTARITCSGDALPNQYVNWYQQKPGQAPVLMMFKDNQRPSGIPERFSGSRSGTTVTLSISGVQAEDEADYHCQSADRTATSVAFGGGTKLTVL
B19: SNV-21 (antibody, V domains shown)
VH: QVQLVESGGGVVQPGRALRLSCAASGFTFSSYGMHWVRQAPGKGLEWVAVVWNDGGNKYYADSVKGRFTISRDNSKNTLYLQMNSLRAEDTAVYFCARDGYYVSSGYHPLRYYYYYMDVWGKGTTVAVSS
VL: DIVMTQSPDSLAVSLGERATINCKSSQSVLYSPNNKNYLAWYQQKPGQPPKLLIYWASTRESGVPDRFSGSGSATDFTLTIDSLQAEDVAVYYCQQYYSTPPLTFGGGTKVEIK
B20: ANDV-54 (antibody, V domains shown)
VH: EVQLVESGGGVVQPGRSLRLSCAASGFTFSPYGMHWVRQAPGKGLEWVAVVWYDGNNKYYADSVKGRFTISRDNSKNTLYLQMNSLRAEDTAVYYCARENTPTYNSGYYFDYWGQGTLVTVSS
VL: QSALTQPASVSGSPGQSITISCTGTSSDVGSYDLVSWYQQHPGKAPKLIIYEGSKRPSGVSNRFSGSKSGNTASLTISGLQAEDEADYYCCSYAGSSTWVFGGGTKVTVL
B21: SNV-53 (antibody, V domains shown)
VH: EVQLVQSGAEVKTPGESLKISCKGSGYRFYTYWIAWVRQMPGKGLEWMGIIYPGDSDPRYSPSFQGQVTISADKSISTAYLQWSSLKASDTAMYYCVRVQGTMLDYWGQGTLVTVSS
VL: QSVLTQPPSVSGAPGQSVTISCSGSSSNIGAGYDVHWYQQLLGRAPKLLIHGNSNRPSGVPDRFSGSKSGTSGSLAITGLQSEDEADYYCQSYDISLSGWVFGGGTKLTVL
B22: SNV-30 (antibody, V domains shown)
VH: QLQLQESGSRLVKSSETLSLTCAVSGGAITSGRNTWSWIRQPPGKGLEWIGFIYYSGSTYSNPITYSSPSLKSRVTISLDTSKNQFSLKLNSVTAADTAVYYCARAKPSNLNFYYYGMDVWGQGTTVTVSS
VL: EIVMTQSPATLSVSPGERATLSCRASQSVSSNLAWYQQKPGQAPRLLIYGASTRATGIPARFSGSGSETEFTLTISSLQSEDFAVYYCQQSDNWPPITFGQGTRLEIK
B23: SNV-3 (antibody, V domains shown)
VH: QVQLQQSGPGLVKPSQTLSLTCAISGDSVSSNSAAWNWIRQSPSRGLEWLGRTYYRSKWYNDYAVSVKSRITINPDTSKNQFSLQMNSVTPEDTAVYYCARDRRKLEPPPFSYYYYGLDVWGQGTTVTVSS
VL: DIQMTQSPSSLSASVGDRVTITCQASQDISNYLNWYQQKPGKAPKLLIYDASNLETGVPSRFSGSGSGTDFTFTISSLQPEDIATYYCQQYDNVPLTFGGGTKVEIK

Assays:
[1] = biological target: T1, Sin Nombre virus (SNV) glycoproteins Gn and Gc displayed on the surface of Expi293F cells transfected with … (Sin Nombre virus); assay: flow
[2] = biological target: T1, Sin Nombre virus (SNV) glycoproteins Gn …; assay: flow; remark: listed apart in the source

| Binder | EC50 [1] | EC50 [2] |
| --- | --- | --- |
| B1 | 14 ng/mL |  |
| B2 | 6 ng/mL |  |
| B3 | 5.2 ng/mL |  |
| B4 | 7.2 ng/mL |  |
| B5 | 66 ng/mL |  |
| B6 | 9.9 ng/mL |  |
| B7 | 6.5 ng/mL |  |
| B8 | 15 ng/mL |  |
| B9 | 5.9 ng/mL |  |
| B10 | 7.7 ng/mL |  |
| B11 | 3.4 ng/mL |  |
| B12 | 11 ng/mL |  |
| B13 | 10 ng/mL |  |
| B14 |  | 1090 ng/mL |
| B15 | 7.2 ng/mL |  |
| B16 | 14 ng/mL |  |
| B17 |  | 16 ng/mL |
| B18 | 2.6 ng/mL |  |
| B19 | 20 ng/mL |  |
| B20 |  | 3670 ng/mL |
| B21 | 3.5 ng/mL |  |
| B22 | 5.5 ng/mL |  |
| B23 | 5.6 ng/mL |  |
